Test [1] addresses CCR7 on T2 hybridoma cells. Nature of the test: cell-based or functional assay.
Test [2] addresses CP-MVP recombinant vaults (rat MVP generated in Sf9 cells) (rat) (UniProt Q62667). The test can be described thus: densitometry of Coomassie stained SDS-PAGE gels of purified vault complexes.
Sequence of UniProt Q62667 (Q62667 2-861 limits assumed): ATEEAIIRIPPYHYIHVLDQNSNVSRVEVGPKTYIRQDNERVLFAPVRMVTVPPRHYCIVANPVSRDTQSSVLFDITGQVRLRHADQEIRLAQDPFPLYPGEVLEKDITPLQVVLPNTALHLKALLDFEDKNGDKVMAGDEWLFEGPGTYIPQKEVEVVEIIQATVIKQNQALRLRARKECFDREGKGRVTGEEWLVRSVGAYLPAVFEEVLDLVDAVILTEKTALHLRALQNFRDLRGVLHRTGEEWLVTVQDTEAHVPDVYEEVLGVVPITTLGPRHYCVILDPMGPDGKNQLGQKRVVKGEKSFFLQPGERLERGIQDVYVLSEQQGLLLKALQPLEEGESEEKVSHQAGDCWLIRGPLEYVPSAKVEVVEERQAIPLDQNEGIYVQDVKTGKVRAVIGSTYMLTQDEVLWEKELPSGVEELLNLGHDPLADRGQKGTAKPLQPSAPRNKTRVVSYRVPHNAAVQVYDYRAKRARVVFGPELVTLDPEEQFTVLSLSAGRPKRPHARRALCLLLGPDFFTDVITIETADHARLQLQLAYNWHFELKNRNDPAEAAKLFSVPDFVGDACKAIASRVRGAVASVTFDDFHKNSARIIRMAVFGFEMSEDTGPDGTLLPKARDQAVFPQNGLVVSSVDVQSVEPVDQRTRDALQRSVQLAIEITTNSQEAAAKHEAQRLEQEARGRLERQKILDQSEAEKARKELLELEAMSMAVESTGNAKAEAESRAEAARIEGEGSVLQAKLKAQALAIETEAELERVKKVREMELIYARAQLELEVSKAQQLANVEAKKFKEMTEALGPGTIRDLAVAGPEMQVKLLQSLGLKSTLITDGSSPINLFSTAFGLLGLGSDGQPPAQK

Sequence of CCL-21 vault complex (CP-MVP vaults with packaged mouse CCL-21-mCherry-mINT) (chain): as the sequence (Q62667 2-861 limits assumed) above
Sequence of CCL-21 vault complex (CP-MVP vaults with packaged mouse CCL-21-mCherry-mINT) (chain, part): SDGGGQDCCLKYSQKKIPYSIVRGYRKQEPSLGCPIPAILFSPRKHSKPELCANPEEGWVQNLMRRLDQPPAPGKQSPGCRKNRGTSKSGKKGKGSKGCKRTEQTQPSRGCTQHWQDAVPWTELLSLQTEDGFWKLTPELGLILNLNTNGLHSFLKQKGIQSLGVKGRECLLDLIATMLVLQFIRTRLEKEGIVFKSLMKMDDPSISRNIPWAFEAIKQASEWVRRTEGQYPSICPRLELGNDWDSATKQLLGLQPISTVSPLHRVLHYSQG

Turning to “recombinant CCL-21 (R&D Systems) (ligand)”, the % migration of T2 cells (dual-chamber chemotaxis assay) in test [1] is below 2.5%.
With “mouse CCL-21-mCherry-mINT fusion protein”, the molecules of CCL-21-mINT protein per vault complex (molecules per vault complex) in test [2] lay within 20 to 30.
“CCL-21 vault complex (CP-MVP vaults with packaged mouse CCL-21-mCherry-mINT)”: the % migration of T2 cells (dual-chamber chemotaxis assay) in test [1] is above 7.5%.

Values taken from patent US20120213809A1.
